Assays:
[1] = tested on: K4 kissing-loop RNA reporter; experiment: apparent KD of K4 kissing-loop reporter; higher = weaker reporter binding; settings: Eterna round: R107;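 also: bound reporter read as fluorescence of individual clusters on recovered sequencing chips by microscopy, with normalized cluster intensities fitted with a binding model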
Method: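 RNA-MaP round R107: designed RNA switches with theophylline, tryptophan, arginine or FMN aptamers are transcribed on-chip within common flanks. They are titrated with a labelled K4 kissing-loop RNA reporter in RNA-MaP buffer (100 mM Tris pH 7.5, 80 mM KCl, 4 mM MgCl2), without ligand or with the indicated ligand. Median apparent KD per design.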

MS2 coat protein = experiment: apparent KD of MS2 coat protein; designed switch direction (-1 OFF switch, 1 ON switch): -1; higher = weaker reporter binding
Summary of the method: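 Designed RNA switches with common flanks were made on Illumina chips by stalled E. coli RNA polymerase. Titration with SNAP-549-labelled MS2 coat protein doubled from 0.7 or 1.5 nM up to 3 µM. Apparent KD is each design's median over clusters after curve-fitting normalised fluorescence.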

[2] = input ligand: theophylline 20 uM
[3] = input ligand: tryptophan 2.4 mM
[4] = Eterna round: R95, input ligand: FMN 200 uM
[5] = Eterna round: R95, input ligand: microRNA oligo, concentration not stated
[6] = Eterna round: R95, input ligand: none
[7] = input ligand: microRNA oligo, concentration not stated

UACUUAUAGUUAUUUCUACAUUUAUUUAGUCAGGAUAUCGAUUAGUCGAGAAGGGACAAUAUCAAGUGAUGUUUGAUAAUUCAAA [JR_ExcFMNA_Sub012]
apparent KD of K4 kissing-loop reporter ([1]; input ligand: FMN 200 uM): 89.9 nM
apparent KD of K4 kissing-loop reporter ([1]; input ligand: arginine 13.2 mM): 161 nM
apparent KD of K4 kissing-loop reporter ([1]; input ligand: none): 119 nM
apparent KD of K4 kissing-loop reporter [1, 2]: 158 nM
apparent KD of K4 kissing-loop reporter [1, 3]: 84.9 nM

CCAUCGCUAUUCGAUACCAGUCAUUUUUUAUUUUAUUUUUUUUUUGGAGUGAUGUUCCAAGACCCUUGGCAGCGGAUAGUGAUGG [whbob_SS_Theo_B_th79]
apparent KD of K4 kissing-loop reporter ([1]; input ligand: FMN 200 uM): 117 nM
apparent KD of K4 kissing-loop reporter ([1]; input ligand: arginine 13.2 mM): 150 nM
apparent KD of K4 kissing-loop reporter ([1]; input ligand: none): 117 nM
apparent KD of K4 kissing-loop reporter [1, 2]: 158 nM
apparent KD of K4 kissing-loop reporter [1, 3]: 109 nM

UGCAGUGAUGUUGCUAUUUGUCUUGAUAAACGAGGACCGGUACGGCCGCCACUCGAUUUCUCUCUUAUCGGGUAUGUUGUUUAGU [#21 K4 Tryptophan A Exclusion]
apparent KD of K4 kissing-loop reporter ([1]; input ligand: FMN 200 uM): 156 nM
apparent KD of K4 kissing-loop reporter ([1]; input ligand: arginine 13.2 mM): 186 nM
apparent KD of K4 kissing-loop reporter ([1]; input ligand: none): 172 nM
apparent KD of K4 kissing-loop reporter [1, 2]: 205 nM
apparent KD of K4 kissing-loop reporter [1, 3]: 113 nM

AAGCAGUCUCUUGUAAUCAUCGAAGAUGAACGAGGACCGGUACGGCCGCCACUCGGAGUGAUGUUCCGAAGACUGCAAAAUAAAA [MatMod 16 - Jieux - Exclusion - Tryptophan A]
apparent KD of K4 kissing-loop reporter ([1]; input ligand: FMN 200 uM): 650 nM
apparent KD of K4 kissing-loop reporter ([1]; input ligand: arginine 13.2 mM): 494 nM
apparent KD of K4 kissing-loop reporter ([1]; input ligand: none): 676 nM
apparent KD of K4 kissing-loop reporter [1, 2]: 873 nM
apparent KD of K4 kissing-loop reporter [1, 3]: 219 nM

UGAUAGCCAGUGAUGUUGGCAUGUACUGAAGGAGCGCGUGGAAACGCAGGUAGGUCGCAGUUCCUUGCCAAUUGAUCGAAAGAUC [#09 K4 Arginine A Exclusion]
apparent KD of K4 kissing-loop reporter ([1]; input ligand: FMN 200 uM): 249 nM
apparent KD of K4 kissing-loop reporter ([1]; input ligand: arginine 13.2 mM): 288 nM
apparent KD of K4 kissing-loop reporter ([1]; input ligand: none): 320 nM
apparent KD of K4 kissing-loop reporter [1, 2]: 395 nM
apparent KD of K4 kissing-loop reporter [1, 3]: 239 nM

GCAACAUUGGAAGGAUAUCAUUCUGAGUGAUGUUCAGGGUUCAGCUAACGAAAGUUAGUUGUACCAUGAGAAGGUCUAAUGUUGC [Omei KL FMN B SS A v4]
apparent KD of K4 kissing-loop reporter ([1]; input ligand: FMN 200 uM): 332 nM
apparent KD of K4 kissing-loop reporter ([1]; input ligand: arginine 13.2 mM): 646 nM
apparent KD of K4 kissing-loop reporter ([1]; input ligand: none): 1610 nM
apparent KD of K4 kissing-loop reporter [1, 2]: 1220 nM
apparent KD of K4 kissing-loop reporter [1, 3]: 1010 nM

UAAUUGUGAGGAUAUUCGUUUUUCACGGAGACGUGAAGAACGGAGAAGGCACAUGAGGAUCACCCAUGUUCCUU [Mat - Exclusion 4 - JL Mod - D15] (Eterna round: R97, puzzle: Exclusion 4)
apparent KD of MS2 coat protein (MS2 coat protein; input ligand: FMN 200 uM): 89.3 nM
apparent KD of MS2 coat protein (MS2 coat protein; input ligand: none): 19.5 nM

UAUUAGCAAGCGAGAUCCCACAUGAGGAUCACCCAUGUGCUCGUCUUAUAAGGUACUGUGACGAGAGUCACGGUACC [Mat - Sensor, turn-off var - Eli Mod - D17] (Eterna round: R97, puzzle: Sensor, turn-off variant 1)
apparent KD of MS2 coat protein (MS2 coat protein; input ligand: FMN 200 uM): 16.4 nM
apparent KD of MS2 coat protein (MS2 coat protein; input ligand: none): 13.9 nM

GGAGGGCUAGGAUAUGUAACAGGGAACUUGAGGAUCACCCAAGUGGCCGAAGGCACCCUGGCAGAAGGAGUAAAGA [Inmaislari] (Eterna round: R97, puzzle: Exclusion 5)
apparent KD of MS2 coat protein (MS2 coat protein; input ligand: FMN 200 uM): 71.6 nM
apparent KD of MS2 coat protein (MS2 coat protein; input ligand: none): 50.8 nM

GUGUAACUACACGGGCUCAACAUGAGGAUCACCCAUGUCAUACACGCAAGCUUUCUGCUUGUCUUAUCUGUCCGUGA [Acela] (puzzle: Sensor v3, turn-off variant 1)
apparent KD of MS2 coat protein (MS2 coat protein; [4]): 13.2 nM
apparent KD of MS2 coat protein (MS2 coat protein; [5]): 12.5 nM
apparent KD of MS2 coat protein (MS2 coat protein; [6]): 10.4 nM

UGACGGAUAGGAUAUGUAUCGCCUGACAUGAGGAUCACCCAUGUGGUUCAUAAGUUGCCAACAGAAGGAUCAGAAA [Eternabot (L1) Solution 60] (Eterna round: R97, puzzle: Exclusion 5)
apparent KD of MS2 coat protein (MS2 coat protein; input ligand: FMN 200 uM): 129 nM
apparent KD of MS2 coat protein (MS2 coat protein; input ligand: none): 180 nM

GGUUGGCGAGGAUAUACAUGAGGAUCACCCAUGUGAGAGAAAAGAGUGAGAACGAAAAGUAGAAGGCGCUGACG [salish99_ex3_r3_059] (puzzle: Exclusion 3)
apparent KD of MS2 coat protein (MS2 coat protein; [4]): 60 nM
apparent KD of MS2 coat protein (MS2 coat protein; [5]): 112 nM
apparent KD of MS2 coat protein (MS2 coat protein; [6]): 207 nM

AAUACACAUGAGGAUCACCCAUGUUAGGAUAUUAGCGGGCAGACAGACAGACAGACGAUGAGAAGGAACAGGAA [Excls1-VII] (puzzle: Exclusion 1)
apparent KD of MS2 coat protein (MS2 coat protein; [4]): 23.3 nM
apparent KD of MS2 coat protein (MS2 coat protein; [5]): 22.3 nM
apparent KD of MS2 coat protein (MS2 coat protein; [6]): 27.7 nM

CUUGAAUAAGUGAGGAUAUACUGUUAGUAAUGAUUGUAGAAGGUACAUGAGGAUCACCCAUGUUUAUUCUUUAU [JR_BME4_Sub040] (puzzle: Brourd's mod of Exclusion 4)
apparent KD of MS2 coat protein (MS2 coat protein; [5]): 14.5 nM

UUAUUACGAGGAUAUCGUUUUUAUCACAUGAGGAUCACCCAUGUAAUUUAUGUUUCGUUUCGAGAAGGCGUUUGUU [JR_E5_Sub067] (puzzle: Exclusion 5)
apparent KD of MS2 coat protein (MS2 coat protein; [5]): 23.3 nM

ACAAGCAGAGGUGUGCGACACAUGAGGAUCACCCAUGUCGUCUGCCUCUGUGCAGAGGCUUUUUGCUCGUACUUAUU [Sensor V1 S3] (Eterna round: R97, puzzle: Sensor, turn-off variant 1)
apparent KD of MS2 coat protein (MS2 coat protein; input ligand: FMN 200 uM): 20.1 nM
apparent KD of MS2 coat protein (MS2 coat protein; input ligand: none): 19.3 nM

GGUUCCUGAGGAUAUACAUGAGGAUCACCCAUGUCUAUAUCAGCAGACGAUGACACAAGUAGAAGGUAGAGGGC [Eternabot (L2) Solution 48] (Eterna round: R97, puzzle: Exclusion 3)
apparent KD of MS2 coat protein (MS2 coat protein; input ligand: FMN 200 uM): 15 nM
apparent KD of MS2 coat protein (MS2 coat protein; input ligand: none): 10.4 nM

UUUAACAAGCCAGAUCCUCACAUGAGGAUCACCCAUGUGCUCGUCUGAUUUUGUACUAUCAUGUGAGUGAUAGUAUU [Level Boss var2-05] (Eterna round: R96, puzzle: Sensor v3, turn-off variant 1)
apparent KD of MS2 coat protein (MS2 coat protein; input ligand: FMN 200 uM): 360 nM
apparent KD of MS2 coat protein (MS2 coat protein; [7]): 39.1 nM
apparent KD of MS2 coat protein (MS2 coat protein; input ligand: none): 300 nM

AGAUAGUGCAGAGGAUAUCUUAAUAGAAAGAAUAGAGAAGGCUGACAUGAGGAUCACCCAUGUGAUGUCUUGAGACUACAUGGU [Prohibition 33 - Jieux - Exclusion NG 1] (Eterna round: R96, puzzle: Exclusion NG 1)
apparent KD of MS2 coat protein (MS2 coat protein; [7]): 45.9 nM

CUUUACAUGCUGAGAUCCUACAUGAGGAUCACCCAUGUGGUCCGGUGACGUGAGUCACCGGACUUAGCUCGUCUUGU [salish99_S_TOV1_R5_098] (Eterna round: R97, puzzle: Sensor, turn-off variant 1)
apparent KD of MS2 coat protein (MS2 coat protein; input ligand: FMN 200 uM): 169 nM
apparent KD of MS2 coat protein (MS2 coat protein; input ligand: none): 336 nM

UAAUAAUAGCAAGGAUAUGAUUAUUAUAAUAUAUCAGAAGGUGCACAUGAGGAUCACCCAUGUUUUAUAAUUUGUAAUUUAAAU [2nd something] (Eterna round: R96, puzzle: Exclusion NG 1)
apparent KD of MS2 coat protein (MS2 coat protein; [7]): 40.4 nM

UUUCAGCAAGGAUAUACGGGCUGUGCUUUUCAUUUCUUACAACAUGAGGAUCACCCAUGUAGAAGGUGCAACUU [Ex2 #10] (Eterna round: R97, puzzle: Exclusion 2)
apparent KD of MS2 coat protein (MS2 coat protein; input ligand: FMN 200 uM): 110 nM
apparent KD of MS2 coat protein (MS2 coat protein; input ligand: none): 26.5 nM

Reference: the supplement of paper PMC9170038
